# Laboratory results as given in PMC2728795 (Biochemistry, 2009).
# Target: F-actin (freshly polymerized actin) (UniProt P68135 1-377)
# Assay: co-sedimentation
row,Binder,percent bound at 5 µM F-actin [%]
1,GST(541–605)PRG (domain or fragment) GKPKSSSQSTFHIPLSPVEVKPGNVRNIIQHFENNQQYDAPEPGTQRLSTGSFPEDLLESDSSRS,~75
2,"GST(541–605, F572A)PRG (domain or fragment) GKPKSSSQSTFHIPLSPVEVKPGNVRNIIQHAENNQQYDAPEPGTQRLSTGSFPEDLLESDSSRS",~25
3,"GST(541–605, E573A)PRG (domain or fragment) GKPKSSSQSTFHIPLSPVEVKPGNVRNIIQHFANNQQYDAPEPGTQRLSTGSFPEDLLESDSSRS",~25

# The next lines start with the values.
row,percent bound at 5 µM F-actin [%],Binder
1,~25,"GST(541–605, I569A)PRG (domain or fragment) GKPKSSSQSTFHIPLSPVEVKPGNVRNIAQHFENNQQYDAPEPGTQRLSTGSFPEDLLESDSSRS"
2,~25,"GST(541–605, I568A)PRG (domain or fragment) GKPKSSSQSTFHIPLSPVEVKPGNVRNAIQHFENNQQYDAPEPGTQRLSTGSFPEDLLESDSSRS"
